The results in this text go back to the supplement of paper PMC10567573.

± gives the standard deviation.

A short description of the data set: protein stability index of a GFP-peptide fusion (GPS, HEK-293T) (PSI 1-6); higher = more stable. The following applies: c terminus: a fixed tail appended.
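Note: 24-mer peptide tiles fused after GFP, lentivirally expressed, FACS-sorted into six equal bins by GFP/DsRed ratio, decoded by Illumina sequencing, PSI is the read-weighted mean bin number.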

Regarding MEESKAKFENLCKLMKEILDKKVE [HSP90AB1], the protein stability index reads like this: (treatment: DMSO) 3.34 ± 0.28; (treatment: MLN4924 1 uM, 8 h) 3.29 ± 0.19.

With FIYYENMLLGVPRLRQLKVRNDSC [PKD2L1], the protein stability index reads like this: (treatment: DMSO) 2.33 ± 0.26; (treatment: MLN4924 1 uM, 8 h) 2.19 ± 0.3.

In the case of GEYIYTGNAKGKILVLKTDSQDLV [RBBP5], the protein stability index is, setting by setting: (treatment: DMSO) 2.25 ± 0.24; (treatment: MLN4924 1 uM, 8 h) 2.45 ± 0.57.

TPVVLVGNKSDLKQLRQVTKEEGL [RIT1]: the protein stability index was 4.54 ± 0.15 (treatment: DMSO) and 4.59 ± 0.32 (treatment: MLN4924 1 uM, 8 h).

As to PAGAEYCSSARHPAWGHCFYRLYQ [SCNN1D], the protein stability index by setting is: (treatment: DMSO) 2.08 ± 0.38; (treatment: MLN4924 1 uM, 8 h) 2.68 ± 0.35.

As for ELESLSAIEAELEKVAHQLQALRR [CHGA], the protein stability index is, setting by setting: (treatment: DMSO) 4.74 ± 0.22; (treatment: MLN4924 1 uM, 8 h) 4.97 ± 0.4.

As to DDEQYAWESSAGGSFTVRADHGEP [HSP90AB1], the protein stability index is, setting by setting: (treatment: DMSO) 5.14 ± 0.29; (treatment: MLN4924 1 uM, 8 h) 5.07 ± 0.12.

Consider LDDEDDTSIGMPSLMYRSPPGAEE [RETREG3], for which the protein stability index is 5.44 ± 0.23 (treatment: DMSO) and 5.39 ± 0.26 (treatment: MLN4924 1 uM, 8 h).

On to ALREENRMLSKENKILQVFWEEHK [CBY2], for which the protein stability index reads like this: (treatment: DMSO) 3.19 ± 0.12; (treatment: MLN4924 1 uM, 8 h) 3.28 ± 0.3.

For VTLKTAVDGPDLEMLTGQERVALA [FKBP8], the protein stability index is, setting by setting: (treatment: DMSO) 3.7 ± 0.23; (treatment: MLN4924 1 uM, 8 h) 3.81 ± 0.24.

Take GDCDAREEKQRELARKGSLKNGSM [FAM219A]: the protein stability index (treatment: DMSO) was determined as 5.1 ± 0.26 and the protein stability index (treatment: MLN4924 1 uM, 8 h) was 5.35 ± 0.4.

For LPKPPGTPVVTESTATSITLTWDS [PTPRD], the protein stability index by setting is: (treatment: DMSO) 3.88 ± 0.087; (treatment: MLN4924 1 uM, 8 h) 3.88 ± 0.18.

For SQSLCLNKPTMSFKDYIQERSDPV [ETS2], the protein stability index reads like this: (treatment: DMSO) 3.54 ± 0.32; (treatment: MLN4924 1 uM, 8 h) 3.67 ± 0.53.

With EQIHLLLSSQCFSNISRPRDNPMC [M1AP], the protein stability index was 2.25 ± 0.43 (treatment: DMSO) and 2.33 ± 0.25 (treatment: MLN4924 1 uM, 8 h).

In the case of ARKGKGAFCNGQKLQVSQQEDITK [IMPA1], the protein stability index stood at 4.46 ± 0.18 (treatment: DMSO) and 4.67 ± 0.18 (treatment: MLN4924 1 uM, 8 h).

For ARPWTRDSASLPRKPSVPWQRQMD [RASAL3], the protein stability index worked out at 2.73 ± 0.22 (treatment: DMSO) and 2.94 ± 0.42 (treatment: MLN4924 1 uM, 8 h).

For the sequence DLGASSLHVNGESLEMDSDEDDSE [EHMT1], the protein stability index reads like this: (treatment: DMSO) 5.52 ± 0.15; (treatment: MLN4924 1 uM, 8 h) 5.62 ± 0.14.

Consider QKGSHPMCKEHEDEKINIYCLTCE [TRIM63], for which the protein stability index is 4.64 ± 0.22 (treatment: DMSO) and 4.67 ± 0.17 (treatment: MLN4924 1 uM, 8 h).

As to RLVESTSLRKAIETVYAAYLPKNT [MLH1], under “treatment: DMSO”, the protein stability index turned out to be 2.2 ± 0.27.

For the sequence ELFHTIDTHNTNNLDTEELCEYFS [NECAB1], the protein stability index stood at 3.41 ± 0.28 (treatment: DMSO) and 3.47 ± 0.1 (treatment: MLN4924 1 uM, 8 h).

Take GGWFCEGSFNGSEKETMQFLNDRL [KRT36]: the protein stability index runs as follows: (treatment: DMSO) 3.27 ± 0.23; (treatment: MLN4924 1 uM, 8 h) 3.17 ± 0.41.

In the case of VYIFATCLGLSYDGLLGDNQIMPK [MAGEA6], the protein stability index was 2.82 ± 0.52 (treatment: DMSO) and 2.44 ± 0.44 (treatment: MLN4924 1 uM, 8 h).

As to GILTLAMIAFFFIIIYLGPMVLMI [CDS2], the protein stability index (treatment: DMSO) came out at 2.7 ± 0.57 and the protein stability index (treatment: MLN4924 1 uM, 8 h) came out at 2.48 ± 0.35.

For the sequence IEEYMVHVEEHFQLLARRMQVDKK [FUT8], the protein stability index runs as follows: (treatment: DMSO) 3.06 ± 0.35; (treatment: MLN4924 1 uM, 8 h) 3.2 ± 0.27.

Turning to EGLRRRRGREAGPPQPMVPLAVEN [PBXIP1], the protein stability index (treatment: DMSO) came out at 5 ± 0.49 and the protein stability index (treatment: MLN4924 1 uM, 8 h) stood at 4.98 ± 0.23.

In turn, WTAPLVMRTTNLDNRCKLFDSPSL [CDC25A] yielded a protein stability index (treatment: DMSO) of 2.4 ± 0.17 and a protein stability index (treatment: MLN4924 1 uM, 8 h) of 2.52 ± 0.28.

Sequence LHSLDDFYIGKYFGGVLEYFMIQA [RHOBTB3] yielded a protein stability index (treatment: DMSO) of 2.78 ± 0.37 and a protein stability index (treatment: MLN4924 1 uM, 8 h) of 2.8 ± 0.63.

SDNILSPVMNGGVQTWTQPRLCYL [PDZK1] came in with a protein stability index (treatment: DMSO) of 2.19 ± 0.31 and a protein stability index (treatment: MLN4924 1 uM, 8 h) of 2.46 ± 0.56.

The sequence RRRRIIINVGGIKYSLPWTTLDEF [KCNG1] gave a protein stability index (treatment: DMSO) of 2.48 ± 0.44 and a protein stability index (treatment: MLN4924 1 uM, 8 h) of 2.46 ± 0.59.

Take MRRQEPLPPPPPPSRGGNQLPRPP [WAS]: the protein stability index (treatment: DMSO) was 4.8 ± 0.18 and the protein stability index (treatment: MLN4924 1 uM, 8 h) was determined as 4.89 ± 0.17.

Take GTTLRGRSDADLVVFLSPLTTFQD [OAS1]: the protein stability index is 2.18 ± 0.4 (treatment: DMSO) and 2.28 ± 0.31 (treatment: MLN4924 1 uM, 8 h).

As for VRAHQDTQRRTSMGGTQQQFVEGV [CTNNB1], the protein stability index (treatment: DMSO) was found to be 4.232 ± 0.018 and the protein stability index (treatment: MLN4924 1 uM, 8 h) is 4.24 ± 0.14.

Turning to MFSDNSHCPDCGQQWFPSLELGHW [TOR1AIP2], the protein stability index was found to be 2.33 ± 0.35 (treatment: DMSO) and 2.44 ± 0.34 (treatment: MLN4924 1 uM, 8 h).

In turn, TDSKELSMAKEVIAKELSKTYQET [ZBED1] came in with a protein stability index (treatment: DMSO) of 4.91 ± 0.1 and a protein stability index (treatment: MLN4924 1 uM, 8 h) of 4.82 ± 0.57.

On to LSPDPEERPGAEGAPLLPPPLPPP [ACBD3], for which the protein stability index (treatment: DMSO) worked out at 5.27 ± 0.15 and the protein stability index (treatment: MLN4924 1 uM, 8 h) worked out at 5.32 ± 0.17.

As for RRGGGPVFPAPVVGSGGATSGKLL [ZBTB22], the protein stability index is, setting by setting: (treatment: DMSO) 4.104 ± 0.027; (treatment: MLN4924 1 uM, 8 h) 4.33 ± 0.29.

MTGRVCRGCGGTDIELDAARGDAV [BRF1]: the protein stability index worked out at 3.65 ± 0.12 (treatment: DMSO) and 3.77 ± 0.18 (treatment: MLN4924 1 uM, 8 h).
